This is an account of results in patent US20210252159A1, “CONJUGATES OF CARTILAGE-HOMING PEPTIDES” (priority 2018, published 2021).

Positions of bridges follow the written chain, without caps; N, C: chain ends. Residues, ends and D or L forms follow the SMILES beside them. *: point of attachment. X1 = CC(CCC(C)C(=O)*)C(=O)OCC(=O)[C@@]1(O)[C@H](C)C[C@H]2[C@@H]3CCC4=CC(=O)C=C[C@]4(C)[C@@]3(F)[C@@H](O)C[C@@]21C

Data set [1] can be described thus: Hydrolysis assay of peptide-drug conjugates in human plasma (free Dex by LC/MS). It counts as in vitro ADME. Conditions: 37° C., release of free Dex, time points to 32 hr, read-out: Half-life (hours) as measured in the hydrolysis experiments (converted). Here is the method:
In order to determine hydrolysis rates, conjugates can be diluted in PBS, rat plasma, or human plasma and incubated at 37 degrees. Samples can be taken at designated time-points (e.g., 1, 2, 3, 5, 10, 15, 20, 25, 30, 45, 60, or 90 minutes and/or hours after administration). Internal standards such as triamcinolone acetonide (TAA) can be added as an internal standard, and then active agent/TAA can be extracted using acetonitrile, for example. The samples can be dried down, reconstituted, and analyzed by LC/MS. Data can be normalized using Dex AUC/TAA AUC. Percent hydrolysis can be calculated using the average ratio for active agent AUC/TAA AUC at a time point of maximal drug release. A general method can include using a lyophilized, purified peptide-drug conjugates reconstituted in DMSO following production to generate stock solution at 20 mg/mL. Each conjugate stock can be brought to 0.25 mg/mL in each hydrolysis condition (1×DPBS, human plasma and rat plasma) in triplicate and rocked at 37° C. To quantitate free active agent, 100 μl of the hydrolyzed conjugate solution can be transferred into 1 mL acetonitrile at 4° C. at which time all plasma proteins and intact conjugates can precipitate. This can be performed repeatedly to generate a series of time points (0 hr, 0.5 hr, 1 hr, 2 hr, 4 hr, 6 hr, 8 hr, 24 hr, 32 hr). The acetonitrile solution can be spun at 17,000 g for 5 minutes, and the supernatant removed and added to a 96 well block. The pellet can then be resuspended in 500 μl acetonitrile and re-pelleted as before. The supernatant can be removed and added to the same well in the block. Samples can be prepared for analysis by drying under a nitrogen stream followed by reconstitution in 110 μl 45:55 ACN:Citrate 10 mM pH 5.5. […] Quantification of free active agent (or drug) can be achieved through integration of active agent peaks of the TIC. […]
To quantitate free dexamethasone (Dex), 100 μl of the hydrolyzed conjugate solution was transferred into 1 mL acetonitrile at 4° C. at which time all plasma proteins and intact conjugates precipitated. […]

Another data set in a line: in vivo. The text has this:
Dexamethasone alone has low water solubility. […] A secondary objective was to measure free Dex levels in knee joints.
All samples were collected at euthanasia. Free Dex was extracted from plasma samples and quantified by LC/MS. […] To measure the total Dex concentration (free Dex released in vivo+Dex associated with intact peptide-drug conjugate) in plasma of rats treated with Peptide(SEQ ID NO: 105)-DMA-Dex, a separate plasma sample was subjected to forced hydrolysis followed by extraction of free Dex. Dexamethasone extraction was achieved by acetonitrile precipitation from plasma samples. The forced hydrolysis protocol involved addition of 10 U porcine esterase to the plasma and incubation for 22 h at 37° C. Total white blood cell counts, absolute lymphocyte counts, and thymus and spleen weights were measured to assess systemic markers of Dex exposure over the time-course.
In order to quantify the concentration of free Dex in knee joints, knee joints were harvested, the joint capsule was opened, and the knee joints were then shaken in ethyl acetate for 12 h at 4° C. The extract was centrifuged and the supernatant was dried under nitrogen in a 96 well plate. The samples were then reconstituted and analyzed by LC/MS using the same protocol developed for quantifying free Dex in plasma.
An indirect estimate of intact peptide-drug conjugate concentration at each time-point can be made by subtracting the free Dex concentration (from direct extraction) from the total Dex concentration (from forced hydrolysis). […] Systemic exposure to Dex was assessed by multiple parameters: total white blood cell (WBC) count; absolute lymphocyte count; thymus weight; and spleen weight (FIG. 15).

The mark [2] stands for this setting: any time-point to 24 h, single IV dose 0.2 mg/kg.

Regarding `CC[C@H](C)[C@@H]1NC(=O)[C@@H]2CSSC[C@H](NC(=O)[C@H](CCCNC(=N)N)NC(=O)[C@@H](NC(=O)[C@H](CC(N)=O)NC(=O)[C@@H](NC(=O)[C@@H]3CCCN3C(=O)[C@@H](NC(=O)CNC(=O)[C@H](CO)NC(=O)CNC(=O)C(C)CCC(C)C(=O)OCC(=O)[C@@]3(O)[C@H](C)C[C@H]4[C@@H]5CCC6=CC(=O)C=C[C@]6(C)[C@@]5(F)[C@@H](O)C[C@@]43C)C(C)C)[C@@H](C)CC)C(C)C)C(=O)N[C@@H](CCCNC(=N)N)C(=O)NCC(=O)N[C@@H](CO)C(=O)N[C@@H](CCCNC(=N)N)C(=O)N[C@@H](CC(=O)O)C(=O)N[C@H]3CSSC[C@H](NC(=O)[C@H](CCCNC(=N)N)NC(=O)[C@H](CO)NC(=O)[C@H](CC(N)=O)NC1=O)C(=O)N[C@@H](Cc1c[nH]cn1)C(=O)N[C@H](C(=O)N[C@H](C(=O)N1CCC[C@H]1C(=O)O)[C@@H](C)O)CSSC[C@H](NC(=O)[C@@H]1CCCN1C(=O)[C@H](CC(=O)O)NC(=O)[C@H](CC(C)C)NC3=O)C(=O)N[C@@H](CCCNC(=N)N)C(=O)N[C@@H](CCCNC(=N)N)C(=O)N[C@@H](C)C(=O)NCC(=O)N[C@@H](CCSC)C(=O)N[C@@H](CCCNC(=N)N)C(=O)N[C@@H](Cc1ccccc1)C(=O)NCC(=O)N[C@@H](CCCNC(=N)N)C(=O)N2` (stereo partly shown) [Compound 27, peptide(SEQ ID NO: 105)-[dimethyladipic acid]-Dex] (X1-GSGVPINVRCRGSRDCLDPCRRAGMRFGRCINSRCHCTP-OH; disulfide 10-30, 16-35, 20-37 (inferred); C-terminus assumed), the half-life at 0.25 mg/mL in data set [1] is 22.4 h. Further, the “WBC and lymphocyte cell counts as compared to DexSP” value in the data set “in vivo” (2 h after single IV dose 0.2 mg/kg) was “higher”. The “lymphocyte counts as compared to DexSP” value in “in vivo” (12 h after single IV dose 0.2 mg/kg) is listed as “lower”. In addition, in “in vivo” (setting [2]), the “Thymus weight, difference between DexSP and conjugate” value is reported as “not significantly different”; the “spleen weight, difference between DexSP and conjugate” value is on record as “not significantly different”. In the data set “in vivo” (female, Lewis, rat, in vivo, iv, 0.2 mg/kg), the half-life is around 1.5 h. Moreover, the “detectability of intact peptide-drug conjugate in plasma” value in the data set “in vivo” (plasma, total Dex minus free Dex, single IV dose 0.2 mg/kg) was “not detectable after 6 h”.

What is called half-life is the time in which the quantity being followed falls by half.
